# Literature values as cited in publication PMC11949069.
# Target: IL-18BPa (Homo sapiens) (UniProt O95998)
# Sequence (O95998 31-194): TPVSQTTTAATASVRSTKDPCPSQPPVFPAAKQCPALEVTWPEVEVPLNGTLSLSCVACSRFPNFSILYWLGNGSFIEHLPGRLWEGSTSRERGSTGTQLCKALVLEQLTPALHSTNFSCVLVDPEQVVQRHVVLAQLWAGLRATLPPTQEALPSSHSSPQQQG
# Sequence of IL-18 (Q14116 37-193): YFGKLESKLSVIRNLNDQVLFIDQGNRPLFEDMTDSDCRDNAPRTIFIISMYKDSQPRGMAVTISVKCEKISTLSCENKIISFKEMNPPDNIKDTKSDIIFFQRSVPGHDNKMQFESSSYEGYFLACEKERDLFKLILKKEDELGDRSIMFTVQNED
substance,measurement,value
IL-18 (from UniProt Q14116),Kd,0.4 nM
